Laboratory results published in patent US20240010684A1 (Bayer, published 2024).
*1 amine or outer side, *2 acyl side, *3 side chain or, on linkers, in order; H or OH if unused. Bridges are numbered along the chain shown (N, C = ends). Where no end group is shown, it is not given here. [ ]: non-standard residue; d: D form. TTDS = 1,13-diamino-4,7,10-trioxatridecan-succinamic acid, O=C(CCC(=O)[*:2])NCCCOCCOCCOCCCN[*:1]; Oic = O=C(O)[C@@H]1C[C@@H]2CCCC[C@@H]2N1; Trx = NC[C@H]1CC[C@H](C(=O)O)CC1; tBuAla = CC(C)(C)C[C@H](N)C(=O)O; PEG4 = NCCOCCOCCOCCOCCC(=O)O; Pen = CC(C)(S)[C@H](N)C(=O)O; Orn = NCCC[C@H](N)C(=O)O; Dab = NCC[C@H](N)C(=O)O; Dap = NC[C@H](N)C(=O)O; Ahx = NCCCCCC(=O)O; Sar = CNCC(=O)O

T1: recombinant human MASP1 (amino acids 297-699, C-terminal His Tag) (human, UniProt P48740 297-699)
T1 sequence: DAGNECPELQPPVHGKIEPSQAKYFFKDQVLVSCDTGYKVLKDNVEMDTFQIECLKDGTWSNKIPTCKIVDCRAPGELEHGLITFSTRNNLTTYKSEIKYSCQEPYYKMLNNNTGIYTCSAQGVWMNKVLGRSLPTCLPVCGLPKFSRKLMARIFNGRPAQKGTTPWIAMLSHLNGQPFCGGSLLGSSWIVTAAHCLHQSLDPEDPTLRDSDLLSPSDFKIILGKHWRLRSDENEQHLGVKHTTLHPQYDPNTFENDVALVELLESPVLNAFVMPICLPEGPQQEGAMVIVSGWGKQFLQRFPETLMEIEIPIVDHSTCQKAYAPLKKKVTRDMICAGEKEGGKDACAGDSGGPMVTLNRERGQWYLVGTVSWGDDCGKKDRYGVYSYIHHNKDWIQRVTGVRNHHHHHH


What was measured:
[1] = target: recombinant human MASP2 (amino acids 297-686, C-terminal His Tag) (human, UniProt O00187 297-686); test: cell-based or functional assay
Chain of recombinant human MASP2 (amino acids 297-686, C-terminal His Tag) (O00187 other isoform, or with tags, fused parts or gaps limits assumed): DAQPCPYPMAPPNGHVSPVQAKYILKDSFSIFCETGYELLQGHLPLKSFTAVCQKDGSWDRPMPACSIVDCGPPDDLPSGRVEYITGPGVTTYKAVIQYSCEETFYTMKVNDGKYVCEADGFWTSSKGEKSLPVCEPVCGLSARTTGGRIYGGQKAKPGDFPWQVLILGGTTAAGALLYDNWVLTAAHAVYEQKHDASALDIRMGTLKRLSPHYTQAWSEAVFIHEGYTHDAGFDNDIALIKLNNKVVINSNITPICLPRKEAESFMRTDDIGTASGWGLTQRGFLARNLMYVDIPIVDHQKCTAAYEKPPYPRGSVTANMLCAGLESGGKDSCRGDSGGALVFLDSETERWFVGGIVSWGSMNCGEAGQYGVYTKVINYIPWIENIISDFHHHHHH

[2] = target: T1, recombinant human MASP1 (amino acids …); test: cell-based or functional assay

human MASP2 IC50 [1]	human MASP1 IC50 [2]	Binder
150 nM	3.25 nM	KICSRS[tBuAla]PPI[Pen]I (lactam 1-C; disulfide 3-11; also: TFA salt) [Example 67: K++-IC+SRS-((tBu)A)-PPI-(Pen)+-I**]
6.8 nM	11 nM	[dK]ICSRS[tBuAla]PPI[Pen]I (lactam 1-C; disulfide 3-11; also: TFA salt) [Example 80: k++-IC+SRS-((tBu)A)-PPI-(Pen)+-I**]
240 nM	170 nM	cyclo([PEG4]GICSRSLPPICIPD) (disulfide 4-12; also: TFA salt) [Example 14: (PEG3(16 atoms))**-GIC+SRSLPPIC+IPD**]
540 nM	49 nM	cyclo([Orn]GICSRS[tBuAla]PPI[Pen]I) (disulfide 4-12; also: TFA salt) [Example 65: (Orn)**-GIC+SRS-((tBu)A)-PPI-(Pen)+-I**]
91 nM	18 nM	[Ahx]GICSRSLP[Oic]I[Pen]IPE-NH2 (disulfide 4-12; lactam N-15; also: TFA salt) [Example 83: (Ahx)**-GIC+SRSLP-(Oic)-I-(Pen)+-IPE++-NH2]
7 nM	10 nM	[dK]ICSRS[tBuAla]PPI[Pen]I (lactam 1-C; disulfide 3-11; also: HCl salt) [Example 78: k++-IC+SRS-((tBu)A)-PPI-(Pen)+-I** (HCl Salt)]
110 nM	55 nM	[Dap]GGICSRSLPPICIPD (lactam 1-C; disulfide 5-13; also: TFA salt) [Example 20: (Dap)++-GGIC+SRSLPPIC+IPD**]
1000 nM	1000 nM	cyclo(ICSRS[tBuAla]PPI[Pen]IP) (disulfide 2-10; also: HCl salt) [Example 88: I**C+SRS-((tBu)A)-PPI-(Pen)+-IP** (HCl Salt)]
88 nM	26 nM	cyclo(AGGICSRSLPPICIP[dD]) (disulfide 5-13; also: TFA salt) [Example 17: A**GGIC+SRSLPPIC+IPd**]
760 nM	5 nM	cyclo([Dap][Dap]ICSRS[tBuAla]PPI[Pen]IP) (disulfide 4-12; also: TFA salt) [Example 97: (Dap)**-(Dap)-IC+SRS-((tBu)A)-PPI-(Pen)+-IP**]
20 nM	180 nM	cyclo([Dap][Dap]GICSRSLPPICIPD) (disulfide 5-13; also: TFA salt) [Example 23: (Dap)**-(Dap)-GIC+SRSLPPIC+IPD**]
110 nM	100 nM	cyclo([Ahx]ICSRSLP[Oic]ICI) (disulfide 3-11; also: TFA salt) [Example 95: (Ahx)**-IC+SRSLP-(Oic)-IC+I**]
170 nM	28 nM	cyclo([TTDS]AICSRS[tBuAla]PPI[Pen]IPD) (disulfide 4-12; also: TFA salt) [Example 63: (TTDS)**-AIC+SRS-((tBu)A)-PPI-(Pen)+-IPD**]
310 nM	3.1 nM	[Orn]AICSRS[tBuAla]PPI[Pen]IPD-NH2 (lactam 1-15; disulfide 4-12; also: TFA salt) [Example 61: (Orn)++-AIC+SRS-((tBu)A)-PPI-(Pen)+-IPD++-NH2]
230 nM	18 nM	[3‑azido‑L‑alanine]GAICSRS[tBuAla]PPICIP[L‑propargylglycine]-NH2 (triazole 1-16; disulfide 5-13; also: TFA salt)
87 nM	15 nM	[Ahx]G[dA]ICSRSLP[Oic]I[Pen]IPE-NH2 (disulfide 5-13; lactam N-16; also: TFA salt) [Example 84: (Ahx)**-GaIC+SRSLP-(Oic)-I-(Pen)+-IPE++-NH2]
160 nM	14 nM	[Ahx]AICSRSLP[Oic]I[Pen]IPE-NH2 (disulfide 4-12; lactam N-15; also: TFA salt) [Example 74: (Ahx)**-AIC+SRSLP-(Oic)-I-(Pen)+-IPE++-NH2]
400 nM	23 nM	cyclo([Orn]GICSRS[tBuAla]PPI[Pen]IP) (disulfide 4-12; also: TFA salt) [Example 96: (Orn)**-GIC+SRS-((tBu)A)-PPI-(Pen)+-IP**]
15 nM	50 nM	cyclo(AGGICSRSLPPICIPD) (disulfide 5-13; also: TFA salt) [Example 18: A**GGIC+SRSLPPIC+IPD**]

human MASP2 IC50 [1]	human MASP1 IC50 [2]	Binder
91 nM	190 nM	KGICSRSLPPICIPD (lactam 1-C; disulfide 4-12; also: TFA salt) [Example 22: K++GIC+SRSLPPIC+IPD**]
71 nM	29 nM	EGICSRSLP[Oic]I[Pen]IPDK-NH2 (lactam 1-16; disulfide 4-12; also: TFA salt) [Example 91: E++GIC+SRSLP-(Oic)-I-(Pen)+-IPDK++-NH2]
130 nM	120 nM	cyclo([Ahx]GICSRSLPPICIPD) (disulfide 4-12; also: HCl salt) [Example 94: (Ahx)**-GIC+SRSLPPIC+IPD** (HCl Salt)]
22 nM	8.1 nM	[Orn]ICSRS[tBuAla]PPI[Pen]I (lactam 1-C; disulfide 3-11; also: TFA salt) [Example 66: (Orn)++-IC+SRS-((tBu)A)-PPI-(Pen)+-I**]
700 nM	69 nM	[Ahx]GAICSRSLP[Oic]I[Pen]IPE-NH2 (disulfide 5-13; lactam N-16; also: TFA salt) [Example 82: (Ahx)**-GAIC+SRSLP-(Oic)-I-(Pen)+-IPE++-NH2]
110 nM	9.8 nM	EGICSRSLP[Oic]I[Pen]IPK-NH2 (lactam 1-15; disulfide 4-12; also: TFA salt) [Example 90: E++GIC+SRSLP-(Oic)-I-(Pen)+-IPK++-NH2]
700 nM	46 nM	cyclo([Dap]ICSRSLP[Oic]I[Pen]IP) (disulfide 3-11; also: TFA salt) [Example 87: (Dap)**-IC+SRSLP-(Oic)-I-(Pen)+-IP**]
24 nM	21 nM	[Orn]ICSRS[tBuAla]PPI[Pen]IP (lactam 1-C; disulfide 3-11; also: TFA salt) [Example 71: (Orn)++-IC+SRS-((tBu)A)-PPI-(Pen)+-IP**]
300 nM	120 nM	cyclo(GGICSRSLPPICIPD) (disulfide 4-12; also: TFA salt) [Example 15: G**GIC+SRSLPPIC+IPD**]
210 nM	49 nM	cyclo([dA]GGICSRSLPPICIPD) (disulfide 5-13; also: TFA salt) [Example 19: a**GGIC+SRSLPPIC+IPD**]
1000 nM	27 nM	[Dap][Dap]ICSRSLP[Oic]I[Pen]IP (lactam 1-C; disulfide 4-12; also: TFA salt) [Example 86: (Dap)++-(Dap)-IC+SRSLP-(Oic)-I-(Pen)+-IP**]
540 nM	22 nM	G[Trx]GICSRS[tBuAla]PPI[Pen]IPD-NH2 (disulfide 5-13; lactam N-16; also: TFA salt) [Example 62: G**-(TXA)-GIC+SRS-((tBu)A)-PPI-(Pen)+-IPD++-NH2]
1000 nM	1000 nM	[Dap]ICSRSLP[Oic]I[Pen]IP (lactam 1-C; disulfide 3-11; also: TFA salt) [Example 85: (Dap)++-IC+SRSLP-(Oic)-I-(Pen)+-IP**]
370 nM	150 nM	cyclo([Ahx]GICSRSLPPICIP[dD]) (disulfide 4-12; also: TFA salt) [Example 16: (Ahx)**-GIC+SRSLPPIC+IPd**]
120 nM	170 nM	cyclo(GSGICSRSLPPICIPDS) (disulfide 5-13; not fully specified; printed as G**SGIC+SRSLPPIC+IPDS**; also: TFA salt) [Example 21: G**SGIC+SRSLPPIC+IPDS**]
45 nM	22 nM	[Ahx][dA]ICSRSLP[Oic]I[Pen]IPE-NH2 (disulfide 4-12; lactam N-15; also: HCl salt) [Example 79: (Ahx)**-aIC+SRSLP-(Oic)-I-(Pen)+-IPE++-NH2 (HCl Salt)]
210 nM	11 nM	[Ahx][Sar]AICSRSLP[Oic]I[Pen]IPE-NH2 (disulfide 5-13; lactam N-16; also: TFA salt) [Example 77: (Ahx)**-((N-Me)G)-AIC+SRSLP-(Oic)-I-(Pen)+-IPE++-NH2]
430 nM	42 nM	cyclo([Dap][Dab]ICSRS[tBuAla]PPI[Pen]I) (disulfide 4-12; also: TFA salt) [Example 73: (Dap)**-(Dab)-IC+SRS-((tBu)A)-PPI-(Pen)+-I**]
